According to PMC10986514:

Target: SARS-CoV-2 RBD single mutant E484K (SARS-CoV-2) (UniProt P0DTC2)
Assay: peptide or protein array

Row | Substance | percent decrease of the binding signal against wild-type RBD
1 | Tri-TMH multimodular nanobody (Ty1, MR17-K99Y and H11-H4 modules) (VHH) | 60%
2 | Tri-TMV multimodular nanobody (Ty1, MR17-K99Y and VHH V modules) | 40%
3 | Tri-Ty1 multimodular nanobody (three Ty1 modules) (VHH) | 96%
